The source of these data is article PMC3898201.

Test [1] addresses proteasome catalytic subunit β5 (in the purified rabbit 20S constitutive proteasome) (rabbit). Put plainly: FRET or BRET.
Test [2] concerns the target proteasome catalytic subunit β2 (in the purified rabbit 20S constitutive proteasome) (rabbit). Put plainly: FRET or BRET.

As for “proteasome catalytic subunit β1 (in the purified rabbit 20S constitutive proteasome) (natural protein)”, in test [1], the FRET efficiency E turned out to be 0.55 and the FRET efficiency E (fluorophores swapped: LKSCy3:UKPCy5) was determined as 0.55. In test [2], this substance came in with an FRET efficiency E of 0.18.
In test [2], “proteasome catalytic subunit β5 (in the purified rabbit 20S constitutive proteasome) (natural protein)” gave an FRET efficiency E of 0.45.
